Earlier results in PMC3728333, “Development of an Epidermal Growth Factor Derivative with EGFR Blocking Activity” (PLoS ONE, 2013).

Legend:
[1] = test system: EGFR-positive breast cancer; conditions: ref [44], [45]
Source text: (§1) Moreover, EGFt could also be used as a targeted toxin delivery agent. In this respect, we are currently developing ^111In–DTPA–EGFt as a potential Auger electron-emitting radiotherapeutic for EGFR-positive breast cancer.

[2] = test system: EGFR-positive breast cancer cells
Source text: as §1

B1: ^111In-DTPA-hEGF: ^111In-DTPA-hEGF, Kd value obtained from previous work (conjugate, UniProt P01133 23-1207, looked up)
Pro-epidermal growth factor: PQHWSCPEGTLAGNGNSTCVGPAPFLIFSHGNSIFRIDTEGTNYEQLVVDAGVSVIMDFHYNEKRIYWVDLERQLLQRVFLNGSRQERVCNIEKNVSGMAINWINEEVIWSNQQEGIITVTDMKGNNSHILLSALKYPANVAVDPVERFIFWSSEVAGSLYRADLDGVGVKALLETSEKITAVSLDVLDKRLFWIQYNREGSNSLICSCDYDGGSVHISKHPTQHNLFAMSLFGDRIFYSTWKMKTIWIANKHTGKDMVRINLHSSFVPLGELKVVHPLAQPKAEDDTWEPEQKLCKLRKGNCSSTVCGQDLQSHLCMCAEGYALSRDRKYCEDVNECAFWNHGCTLGCKNTPGSYYCTCPVGFVLLPDGKRCHQLVSCPRNVSECSHDCVLTSEGPLCFCPEGSVLERDGKTCSGCSSPDNGGCSQLCVPLSPVSWECDCFPGYDLQLDEKSCAASGPQPFLLFANSQDIRHMHFDGTDYGTLLSQQMGMVYALDHDPVENKIYFAHTALKWIERANMDGSQRERLIEEGVDVPEGLAVDWIGRRFYWTDRGKSLIGRSDLNGKRSKIITKENISQPRGIAVHPMAKRLFWTDTGINPRIESSSLQGLGRLVIASSDLIWPSGITIDFLTDKLYWCDAKQSVIEMANLDGSKRRRLTQNDVGHPFAVAVFEDYVWFSDWAMPSVMRVNKRTGKDRVRLQGSMLKPSSLVVVHPLAKPGADPCLYQNGGCEHICKKRLGTAWCSCREGFMKASDGKTCLALDGHQLLAGGEVDLKNQVTPLDILSKTRVSEDNITESQHMLVAEIMVSDQDDCAPVGCSMYARCISEGEDATCQCLKGFAGDGKLCSDIDECEMGVPVCPPASSKCINTEGGYVCRCSEGYQGDGIHCLDIDECQLGEHSCGENASCTNTEGGYTCMCAGRLSEPGLICPDSTPPPHLREDDHHYSVRNSDSECPLSHDGYCLHDGVCMYIEALDKYACNCVVGYIGERCQYRDLKWWELRHAGHGQQQKVIVVAVCVVVLVMLLLLSLWGAHYYRTQKLLSKNPKNPYEESSRDVRSRRPADTEDGMSSCPQPWFVVIKEHQDLKNGGQPVAGEDGQAADGSMQPTSWRQEPQLCGMGTEQGCWIPVSSDKGSCPQVMERSFHMPSYGTQTLEGGVEKPHSLLSANPLWQQRALDPPHQMELTQ
modifications: Pro-epidermal growth factor 111In-DTPA
- tumour growth inhibition in vivo [1]: tumour growth-inhibition in vivo
- cytotoxic effects in vitro [2]: potent cytotoxic effects in vitro
